Measured values taken from article PMC10397247.

Columns and labels:
Assay in all cases: two-hybrid library CCNG1;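 note: natural log of median RNA to DNA barcode read ratio; higher means stronger binding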
P6A-bN = target: T1, P6A-bN
T1 chain: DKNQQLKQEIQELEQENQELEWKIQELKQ

P8A-bN = target: T2, P8A-bN
T2 chain: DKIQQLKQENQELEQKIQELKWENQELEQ

P4A-bN = target: T3, P4A-bN
T3 chain: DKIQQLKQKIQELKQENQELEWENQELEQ

P9A-bN = target: T4, P9A-bN
T4 chain: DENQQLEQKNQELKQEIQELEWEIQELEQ

P5A-bN = target: T5, P5A-bN
T5 chain: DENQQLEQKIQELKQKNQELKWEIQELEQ

P1A-bN = target: T6, P1A-bN
T6 chain: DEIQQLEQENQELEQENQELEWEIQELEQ

P3A-bN = target: T7, P3A-bN
T7 chain: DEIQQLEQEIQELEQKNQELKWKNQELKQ

P2A-bN = target: T8, P2A-bN
T8 chain: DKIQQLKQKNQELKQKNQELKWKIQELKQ

P7A-bN = target: T9, P7A-bN
T9 chain: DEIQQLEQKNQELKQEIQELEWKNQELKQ

P12A-bN = target: T10, P12A-bN
T10 chain: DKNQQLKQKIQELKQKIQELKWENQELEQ

4H3592-bA = target: T11, 4H3592-bA
T11 chain: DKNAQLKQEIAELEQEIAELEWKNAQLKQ

4H3907-bA = target: T12, 4H3907-bA
T12 chain: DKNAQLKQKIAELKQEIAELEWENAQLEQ

4H1406-bA = target: T13, 4H1406-bA
T13 chain: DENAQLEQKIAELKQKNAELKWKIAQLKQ

4H3601-bA = target: T14, 4H3601-bA
T14 chain: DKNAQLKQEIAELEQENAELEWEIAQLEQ

4H4038-bA = target: T15, 4H4038-bA
T15 chain: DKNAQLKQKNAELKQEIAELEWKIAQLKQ

4H1387-bA = target: T16, 4H1387-bA
T16 chain: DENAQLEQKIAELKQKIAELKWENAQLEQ

P4mS = target: T17, P4mS
T17 chain: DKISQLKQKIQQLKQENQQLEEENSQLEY

P12mS = target: T18, P12mS
T18 chain: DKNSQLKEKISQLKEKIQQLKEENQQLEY

P8mS = target: T19, P8mS
T19 chain: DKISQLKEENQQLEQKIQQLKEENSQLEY

P3mS = target: T20, P3mS
T20 chain: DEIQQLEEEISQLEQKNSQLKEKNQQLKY

P6mS = target: T21, P6mS
T21 chain: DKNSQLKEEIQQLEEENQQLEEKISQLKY

P9mS = target: T22, P9mS
T22 chain: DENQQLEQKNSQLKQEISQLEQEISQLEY

P5mS = target: T23, P5mS
T23 chain: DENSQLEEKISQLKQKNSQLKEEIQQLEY

P7mS = target: T24, P7mS
T24 chain: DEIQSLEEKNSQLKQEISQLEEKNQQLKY

B1: P12A-bN (peptide)
chain: DKNQQLKQKIQELKQKIQELKWENQELEQ
- interaction score (P6A-bN): 0.295
- interaction score (P8A-bN): -1.71
- interaction score (P4A-bN): -0.221
- interaction score (P9A-bN): -1.28
- interaction score (P5A-bN): -1.2
- interaction score (P1A-bN): -1.71
- interaction score (P3A-bN): 1.82
- interaction score (P2A-bN): -0.94
- interaction score (P7A-bN): -0.617
- interaction score (P12A-bN): -0.758

B2: 4H1387-bA (peptide)
chain: DENAQLEQKIAELKQKIAELKWENAQLEQ
- interaction score (4H3592-bA): 2.02
- interaction score (4H3907-bA): 1.32
- interaction score (4H1406-bA): -1.1
- interaction score (4H3601-bA): -0.539
- interaction score (4H4038-bA): 0.838
- interaction score (4H1387-bA): -0.828

B3: P12mS (peptide)
chain: DKNSQLKEKISQLKEKIQQLKEENQQLEY
- interaction score (P4mS): -0.954
- interaction score (P12mS): -1.27
- interaction score (P8mS): -0.844
- interaction score (P3mS): 0.362
- interaction score (P6mS): -0.944
- interaction score (P9mS): -0.472
- interaction score (P5mS): -1.57
- interaction score (P7mS): -0.947
